Data as given in article PMC2515308, “Structural characterization of CA1462, the Candida albicans thiamine pyrophosphokinase” (BMC Structural Biology, 2008).

Columns and labels:
[1] = target: Candida albicans thiamine pyrophosphokinase CA1462 (Candida albicans); experiment: SEC; gel filtration of the purified TPK proteins on a Sephacryl S200 HR column
[2] = target: the molecule itself; experiment: as above

Molecule	stoichiometry N [1]	stoichiometry N [2]
Candida albicans thiamine pyrophosphokinase CA1462 (enzyme)	2	
Saccharomyces cerevisiae thiamine pyrophosphokinase YOR143C (enzyme) GHHHQLSEECIENPERIKIGTDLINIRNKMNLKELIHPNEDENSTLLILNQKIDIPRPLFYKIWKLHDLKVCADGAANRLYDYLDDDETLRIKYLPNYIIGDLDSLSEKVYKYYRKNKVTIIKQTTQYSTDFTKCVNLISLHFNSPEFRSLISNKDNLQSNHGIELEKGIHTLYNTMTESLVFSKVTPISLLALGGIGGRFDQTVHSITQLYTLSENASYFKLCYMTPTDLIFLIKKNGTLIEYDPQFRNTCIGNCGLLPIGEATLVKETRGLKWDVKNWPTSVVTGRVSSSNRFVGDNCCFIDTKDDIILNVEIFVDKLIDFLQLDGDLEAA		2
